This assay deals with Flag-CLIC4-Y104A (dog). The assay can be described thus: co-IP; lysates of co-transfected 293T cells in RIPA buffer plus 0.5% CHAPS; anti-Flag or control antibody; Protein-G Dynabeads; 4 °C overnight; 4 washes; blots quantified with the Odyssey system, three independent repeats.

For “mCherry-Tsg101 (from UniProt Q99816 1-390) (natural protein)”, the percent reduction of co-precipitation against Flag-CLIC4 wild type amounted to 40.4 % reduced.
